The target in test [1] is IgG4 contained in cell-free eukaryotic culture supernatant (Experiment 1, test 1). Kind of test: affinity precipitation; 0.13 µmol Z-dimer with 0.065 µmol IgG4 in culture supernatant, 2 h; antibody left in supernatant measured by SEC UV signal and protein A chromatography. A general note: Size exclusion chromatography separates by hydrodynamic size, large species first.
In test [2] the target is IgG1 contained in cell-free eukaryotic culture supernatant (Experiment 1, test 2). Kind of test: affinity precipitation; 16.25 nmol Z-dimer with 16.25 nmol IgG1 in culture supernatant, 2 h; antibody left in supernatant measured by SEC UV signal and protein A chromatography.
Test [3] concerns the target antibody in cell-free culture supernatant (Experiment 3). Kind of test: affinity precipitation from cell-free culture supernatant; antibody to Z-dimer 1:2, 1 h; precipitate collected on a 0.22 µm filter.

“Z-dimer (dimerised protein Z; two Z-domain Cys tag monomers linked via a disulphide bridge) (designed binder)”: the percent of antibody precipitated in test [1] turned out to be 99%; in test [2], 76%. The substance further returned a total yield of the antibody after the precipitation in test [3] of 98%.

Source of the values: patent publication US20140128578A1.
